Data reported in US20240024498A1 (JIANGSU HENGRUI PHARMACEUTICALS, published 2024).
Read-outs that look alike come from different tables or passages of the source.

B1: h1901-11 (antibody, human IgG1, kappa, V domains shown)
VH: EVQLVESGGGLVQPGGSLRLSCAASGFTFSDYGIHWVRQAPGKGLEWIAYISRGSSTIYYADTVKGRFTISRDNAKNSLYLQMTSLRAEDTAVYYCARGGYDTRNAMDYWGQGTTVTVSS
VL: DIVMTQSPDSLAVSLGERATISCKSSQSLLNSGNQKNYLAWYQQKPGQPPKLLIYGASTRASGVPDRFSGSGSGTDFTLTISSLQAEDVAIYHCQNDLYYPLTFGQGTKLEIKR
notes: Humanized antibody of mAb1901, L3 + H3, human IgG1/kappa
B2: ADC-3 (antibody, human IgG1, kappa, V domains shown)
VH: EVQLVESGGGLVQPGGSLRLSCAASGFTFSDYGIHWVRQAPGKGLEWIAYISRGSSTIYYADTVKGRFTISRDNAKNSLYLQMTSLRAEDTAVYYCARGGYDTRNAMDYWGQGTTVTVSS
VL: DIVMTQSPDSLAVSLGERATISCKSSQSLLNSGNQKNYLAWYQQKPGQPPKLLIYGASTRASGVPDRFSGSGSGTDFTLTISSLQAEDVAIYHCQNDLYYPLTFGQGTKLEIKR
modifications: compound 9-A coupled to sulfhydryl groups after TCEP reduction; mean drug loading n=2.51 per antibody; positions not given
B3: ADC-5 (antibody, human IgG1, kappa, V domains shown)
VH: EVQLVESGGGLVQPGGSLRLSCAASGFTFSDYGIHWVRQAPGKGLEWIAYISRGSSTIYYADTVKGRFTISRDNAKNSLYLQMTSLRAEDTAVYYCARGGYDTRNAMDYWGQGTTVTVSS
VL: DIVMTQSPDSLAVSLGERATISCKSSQSLLNSGNQKNYLAWYQQKPGQPPKLLIYGASTRASGVPDRFSGSGSGTDFTLTISSLQAEDVAIYHCQNDLYYPLTFGQGTKLEIKR
modifications: compound 9-A coupled to sulfhydryl groups after TCEP reduction; mean drug loading n=6.8 per antibody; positions not given
B4: ADC-4 (antibody, human IgG1, kappa, V domains shown)
VH: EVQLVESGGGLVQPGGSLRLSCAASGFTFSDYGIHWVRQAPGKGLEWIAYISRGSSTIYYADTVKGRFTISRDNAKNSLYLQMTSLRAEDTAVYYCARGGYDTRNAMDYWGQGTTVTVSS
VL: DIVMTQSPDSLAVSLGERATISCKSSQSLLNSGNQKNYLAWYQQKPGQPPKLLIYGASTRASGVPDRFSGSGSGTDFTLTISSLQAEDVAIYHCQNDLYYPLTFGQGTKLEIKR
modifications: compound 9-A coupled to sulfhydryl groups after TCEP reduction; mean drug loading n=4.06 per antibody; positions not given
B5: ADC-2 (antibody, human IgG1, kappa, V domains shown)
VH: EVQLVESGGGLVQPGGSLRLSCAASGFTFSDYGIHWVRQAPGKGLEWIAYISRGSSTIYYADTVKGRFTISRDNAKNSLYLQMTSLRAEDTAVYYCARGGYDTRNAMDYWGQGTTVTVSS
VL: DIVMTQSPDSLAVSLGERATISCKSSQSLLNSGNQKNYLAWYQQKPGQPPKLLIYGASTRASGVPDRFSGSGSGTDFTLTISSLQAEDVAIYHCQNDLYYPLTFGQGTKLEIKR
modifications: compound 9-A coupled to sulfhydryl groups after TCEP reduction; mean drug loading n=7.1 per antibody; positions not given
B6: h1901-12 (antibody, human IgG1, kappa, V domains shown)
VH: EVQLVESGGGLVQPGGSLRLSCAASGFTFSDYGIHWVRQAPGKGLEWVAYISRGSSTIYYADTVKGRFTMSRDNAKNSLYLQMTSLRAEDTAVYYCARGGYDTRNAMDYWGQGTTVTVSS
VL: DIVMTQSPDSLAVSLGERATISCKSSQSLLNSGNQKNYLAWYQQKPGQPPKLLIYGASTRASGVPDRFSGSGSGTDFTLTISSLQAEDVAIYHCQNDLYYPLTFGQGTKLEIKR
notes: Humanized antibody of mAb1901, L3 + H4, human IgG1/kappa
B7: chimeric antibody ch1901 (antibody, human IgG1, kappa, V domains shown)
VH: EVQLMESGGGLVKPGGSLKLSCAASGFTFSDYGIHWVRQAPEMGLEWIAYISRGSSTIYYADTVKGRFTMSRDNAKNTLFLQMTSLRSEDTAMYYCARGGYDTRNAMDYWGQGTSVTVSS
VL: DIVMTQSPSSLSVSAGEKVTMSCKSSQSLLNSGNQKNYLAWYQQKPGQPPKLLIYGASTRASGVPDRFTGSGSGTDFTLTISSVQAEDLAIYHCQNDLYYPLTFGAGTKLELKR
notes: Murine mAb1901 variable regions on human IgG1 / kappa constant regions
B8: IMAB-362 (antibody, human IgG1, kappa, V domains shown)
VH: QVQLQQPGAELVRPGASVKLSCKASGYTFTSYWINWVKQRPGQGLEWIGNIYPSDSYTNYNQKFKDKATLTVDKSSSTAYMQLSSPTSEDSAVYYCTRSWRGNSFDYWGQGTTLTVSS
VL: DIVMTQSPSSLTVTAGEKVTMSCKSSQSLLNSGNQKNYLTWYQQKPGQPPKLLIYWASTRESGVPDRFTGSGSGTDFTLTISSVQAEDLAVYYCQNDYSYPFTFGSGTKLEIKR
notes: Positive control antibody, from WO2016166122; also called positive control antibody
B9: chimeric antibody ch1902 (antibody, human IgG1, kappa, V domains shown)
VH: EVQLQESGAELVKPGASVKLSCKASGYIFTSYWMHWVKQRPGQGLEWIGMIHPNSGSTNYNEKFKGKATLTLDKSSSTAYMQLSSLPSEDSAVYYCARLKTGNSFDYWGQGTTLTVSS
VL: DIVLTQSPSSLTVTAGEKVTMSCKSSQSLLNSGNQKNYLTWYQQKPGQPPKLLIYWASTRESGVPDRFTGSGSGTDFTLTISSVQAEDLAIYYCQNAYTYPFTFGSGTKLEIKR
notes: Murine mAb1902 variable regions on human IgG1 / kappa constant regions

Key:
human Claudin18.2 [1] = target: T1, human Claudin18.2 (human); assay: cell-based ELISA on fixed NUGC4 cells stably expressing Claudin18.2
T1 construct: also called hClaudin18.2; huClaudin18.2
Description: (§1) Cell-based ELISA assay was used to test the binding properties of the Claudin18.2 antibodies. The stably transfected Claudin18.2-expressing NUGC4 cells were cultured in a 96-well cell plate (Corning, 3599). When growing at 90% density, the cells were immobilized with 4% paraformaldehyde for 1 h. The plate was washed 3 times with PBST buffer (pH 7.4 PBS containing 0.05% Tween-20), and a PBS-diluted 5% skim milk (powdered skim milk from Brightdairy) blocking solution was added at 200 μL/well. The plate was incubated in a 37° C. incubator for 2.5 h or was let stand at 4° C. overnight (16-18 h) for blocking. After blocking, the blocking solution was removed. The plate was washed 3 times with the PBST buffer, and then a test antibody that was diluted with a sample diluent (pH 7.4 PBS containing 1% skim milk) to different concentrations was added at 50 μL/well. The plate was incubated in a 37° C. incubator for 2 h. […] The plate was incubated at 37° C. for 1 h. The plate was washed 6 times with PBST, and then TMB chromogenic substrate (KPL, 52-00-03) was added at 50 µL/well. The plate was incubated at room temperature for 10-15 min, and the reaction was terminated by adding 1 M H₂SO₄ at 50 μL/well. The absorbance at 450 nm was read using an MD Versa Max™ microplate reader, and the binding EC50 value of the Claudin18.2 antibody to Claudin18.2 was calculated.

human Claudin18.2 [2] = target: T1, human Claudin18.2; assay: cell-based or functional assay
human Claudin18.2 [3] = target: T1, human Claudin18.2; assay: flow cytometry on HEK293/hClaudin18.2 cells, Scatchard plot
Description: On the day of experiment, HEK293/hClaudin18.2 cells were collected into a U-bottomed 96-well plate at 1×10⁵ to 2×10⁵ cells per well. A human Claudin18.2 antibody that was 2× diluted serially (12 concentration points) from an initial concentration of 5 μg/mL was added, and the plate was incubated at 4° C. for 1 h. IMAB362 was used as a positive control, and a negative control with no antibody was also provided. The antibody was removed by centrifugation, and FITC anti-human IgG Fc antibody (200×) was added at 100 μL/well. The plate was incubated in the dark at 4° C. for 30 min and washed twice with PBS+2% FBS before flow cytometry analysis. BD FACS CantoII was started and preheated, and then the BD FACSDiva software was run to start a new experiment. […] The samples in the U-bottomed 96-well plate were tested at the saved voltage, and data were recorded. The experimental data were analyzed using Flowjo software to obtain a Geo mean, and an MESF-Geo Mean standard curve was fit according to the instructions for Quantum™ FITC-5 MESF Kit. The molar concentration of the human Claudin18.2 antibody bound to HEK293/hClaudin18.2 cells and the free antibody concentration were calculated according to the concentration fluorescence value of the FITC anti-human IgG Fc antibody, and the Bmax and the dissociation constant KD of the antibody were calculated through Scatchard plots.

human Claudin18.2 [4] = target: T1, human Claudin18.2; assay: cell-based ELISA (absorbance at 450 nm) on fixed NUGC4 cells stably expressing Claudin18.2
Description: as §1

human Claudin18.2 [5] = target: T1, human Claudin18.2; assay: cell-based or functional assay; remark: listed apart in the source
human Claudin18.2 [6] = target: T1, human Claudin18.2; assay: cell-based ELISA (absorbance at 450 nm) on fixed NUGC4 cells stably expressing Claudin18.2; remark: listed apart in the source
Description: as §1

human Claudin18.2 [7] = target: T1, human Claudin18.2; assay: cell-based ELISA on fixed NUGC4 cells stably expressing Claudin18.2; remark: listed apart in the source
Description: as §1

human Claudin18.2 [8] = target: T1, human Claudin18.2; assay: cell-based ELISA (absorbance at 450 nm) on fixed NUGC4 cells stably expressing Claudin18.2; remark: listed apart in the source
Description: as §1

human Claudin18.2 [9] = target: T1, human Claudin18.2; assay: cell-based ELISA on fixed NUGC4 cells stably expressing Claudin18.2; remark: listed apart in the source
Description: as §1

Binder | EC50 (human Claudin18.2 [1]) [nM] | Emax (human Claudin18.2 [4]) | in vitro cell killing EC50, NUGC4-claudin18.2 high expression cells (CellTiter-Glo) (human Claudin18.2 [5]) [nM] | in vitro cell killing EC50, NUGC4-claudin18.2 low expression cells (CellTiter-Glo) (human Claudin18.2 [5]) [nM] | in vitro cell killing Emax, NUGC4-claudin18.2 high expression cells (CellTiter-Glo) (human Claudin18.2 [5]) | in vitro cell killing Emax, NUGC4-claudin18.2 low expression cells (CellTiter-Glo) (human Claudin18.2 [5]) | Emax (human Claudin18.2 [6]) | EC50 (human Claudin18.2 [7]) [nM] | further results
B1 | 0.076 | 1.44 | – | – | – | – | – | – | ADCC effect, IC50 (FcrR3A-V158-NFAT-RE-Jurkat reporter; NUGC4 cells, high Claudin18.2 expression) (human Claudin18.2 [2]): 0.0262 µg/mL; ADCC effect, IC50 (FcrR3A-V158-NFAT-RE-Jurkat reporter; NUGC4 cells, low Claudin18.2 expression) (human Claudin18.2 [2]): 0.0224 µg/mL; ADCC effect, IC50 (FcrR3A-V158-NFAT-RE-Jurkat reporter; NUGC4 cells, moderate Claudin18.2 expression) (human Claudin18.2 [2]): 0.0154 µg/mL; Kd (human Claudin18.2 [3]): 6.8 nM
B2 | – | – | 94 | > 500 | 78.7 | 49 | – | – | –
B3 | – | – | 3.5 | 142 | 95.9 | 69.9 | – | – | –
B4 | – | – | 12 | 299 | 85 | 61 | – | – | –
B5 | – | – | 1.9 | 109 | 91.1 | 69.8 | – | – | in vitro cell killing EC50, NUGC4-claudin18.2 moderate expression cells (CellTiter-Glo) (human Claudin18.2 [5]): 16.8 nM
B6 | 0.116 | 1.22 | – | – | – | – | – | – | –
B7 | – | – | – | – | – | – | 1.4 | 0.098 | –
B8 | 0.086 | 1.11 | – | – | – | – | 1.18 | 0.108 | Emax (human Claudin18.2 [8]): 0.88; ADCC effect, IC50 (FcrR3A-V158-NFAT-RE-Jurkat reporter; NUGC4 cells, high Claudin18.2 expression) (human Claudin18.2 [2]): 0.133 µg/mL; ADCC effect, IC50 (FcrR3A-V158-NFAT-RE-Jurkat reporter; NUGC4 cells, low Claudin18.2 expression) (human Claudin18.2 [2]): 0.183 µg/mL; ADCC effect, IC50 (FcrR3A-V158-NFAT-RE-Jurkat reporter; NUGC4 cells, moderate Claudin18.2 expression) (human Claudin18.2 [2]): 0.21 µg/mL; EC50 (human Claudin18.2 [9]): 0.187 nM; Kd (human Claudin18.2 [3]): 10.2 nM
B9 | – | – | – | – | – | – | 1.27 | 0.074 | –
